Reference: PMC3874162 (Nucleic Acids Research, 2013)

Key:
Cdc13-MOB = molecular target: T1, Cdc13-MOB (Saccharomyces cerevisiae, UniProt P32797 344-496)
T1 sequence: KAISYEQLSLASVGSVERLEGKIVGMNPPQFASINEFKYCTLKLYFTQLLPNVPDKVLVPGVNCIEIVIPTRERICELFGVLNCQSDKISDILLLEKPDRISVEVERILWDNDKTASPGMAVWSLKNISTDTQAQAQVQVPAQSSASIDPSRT

Cdc13-MOB-DBD = molecular target: T2, Cdc13-MOB-DBD (Saccharomyces cerevisiae, UniProt P32797 344-694); test: filter binding
T2 sequence: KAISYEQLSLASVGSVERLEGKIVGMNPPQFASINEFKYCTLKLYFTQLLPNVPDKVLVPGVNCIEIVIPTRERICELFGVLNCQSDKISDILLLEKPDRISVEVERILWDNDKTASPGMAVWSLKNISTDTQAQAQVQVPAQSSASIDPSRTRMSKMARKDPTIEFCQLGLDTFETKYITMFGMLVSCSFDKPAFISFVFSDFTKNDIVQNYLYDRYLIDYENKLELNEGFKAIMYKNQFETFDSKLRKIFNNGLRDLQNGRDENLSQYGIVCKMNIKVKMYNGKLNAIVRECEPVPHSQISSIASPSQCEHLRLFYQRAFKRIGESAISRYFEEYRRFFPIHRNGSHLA

B1: Tel11 (ssDNA)
DNA: GTGTGGGTGTG
- binding result (Cdc13-MOB): no binding
- Kd (Cdc13-MOB-DBD): 180 ± 30 pM
